In this experiment the target is ADGRG1_h1h2: ADGRG1 receptor bearing the designed GAIN domain SS_h1h2, on HEK293T cells (human) (UniProt Q9Y653).
Sequence of UniProt Q9Y653 (Q9Y653 26-693 V174C/S218C): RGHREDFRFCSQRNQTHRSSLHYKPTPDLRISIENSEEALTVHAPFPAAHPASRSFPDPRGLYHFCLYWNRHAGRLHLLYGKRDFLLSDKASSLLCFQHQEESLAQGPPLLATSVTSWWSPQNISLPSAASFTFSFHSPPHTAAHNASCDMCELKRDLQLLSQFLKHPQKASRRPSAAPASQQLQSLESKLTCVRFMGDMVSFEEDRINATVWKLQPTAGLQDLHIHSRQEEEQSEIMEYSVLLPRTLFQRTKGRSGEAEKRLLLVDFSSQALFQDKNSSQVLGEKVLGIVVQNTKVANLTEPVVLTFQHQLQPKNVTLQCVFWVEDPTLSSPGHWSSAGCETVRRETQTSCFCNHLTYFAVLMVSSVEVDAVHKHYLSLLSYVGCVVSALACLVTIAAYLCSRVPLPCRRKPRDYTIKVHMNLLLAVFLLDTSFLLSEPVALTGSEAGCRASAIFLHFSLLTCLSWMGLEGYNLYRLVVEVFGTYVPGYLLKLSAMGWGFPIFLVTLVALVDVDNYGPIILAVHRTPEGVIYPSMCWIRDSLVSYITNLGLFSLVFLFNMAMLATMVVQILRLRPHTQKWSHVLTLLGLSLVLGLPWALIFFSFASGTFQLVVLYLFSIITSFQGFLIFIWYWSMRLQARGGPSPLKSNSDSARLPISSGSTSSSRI

“native human collagen III (from UniProt P02461 154-1221) (ligand)” displayed a Col3-induced increase in activity, SRE-luciferase assay in HEK293T cells greater than 2 fold.

The record behind these values is doi:10.1101/2025.08.14.670383.
